Biological target: T1, GST-Scd6 (S. cerevisiae, UniProt P45978 1-349)
T1 construct: Scd6, S. cerevisiae; source: E. coli BL21 (DE3), purified (glutathione-sepharose beads)
T1 sequence (looked up): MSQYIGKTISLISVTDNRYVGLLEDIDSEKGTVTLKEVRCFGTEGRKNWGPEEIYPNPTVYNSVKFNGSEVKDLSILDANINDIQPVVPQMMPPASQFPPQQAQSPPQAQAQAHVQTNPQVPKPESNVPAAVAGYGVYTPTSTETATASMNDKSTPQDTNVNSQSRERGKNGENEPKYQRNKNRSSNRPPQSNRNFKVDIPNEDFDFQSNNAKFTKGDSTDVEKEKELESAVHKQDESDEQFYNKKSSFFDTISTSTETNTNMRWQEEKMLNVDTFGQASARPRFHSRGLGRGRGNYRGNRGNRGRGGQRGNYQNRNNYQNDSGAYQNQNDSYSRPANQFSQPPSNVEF
Test: pull-down; His6-Hmt1 incubated with GST or GST-Scd6 immobilized on glutathione-sepharose beads for 3 h at 4°C, 5 washes with PBS; Coomassie staining and anti-His immunoblot
Conditions: both partners purified

binding result: binds
B1: His6-Hmt1 (natural protein, S. cerevisiae, UniProt P38074 1-348, looked up)
chain: MSKTAVKDSATEKTKLSESEQHYFNSYDHYGIHEEMLQDTVRTLSYRNAIIQNKDLFKDKIVLDVGCGTGILSMFAAKHGAKHVIGVDMSSIIEMAKELVELNGFSDKITLLRGKLEDVHLPFPKVDIIISEWMGYFLLYESMMDTVLYARDHYLVEGGLIFPDKCSIHLAGLEDSQYKDEKLNYWQDVYGFDYSPFVPLVLHEPIVDTVERNNVNTTSDKLIEFDLNTVKISDLAFKSNFKLTAKRQDMINGIVTWFDIVFPAPKGKRPVEFSTGPHAPYTHWKQTIFYFPDDLDAETGDTIEGELVCSPNEKNNRDLNIKISYKFESNGIDGNSRSRKNEGSYLMH
notes: Hmt1, S. cerevisiae; source: E. coli BL21 (DE3), purified (Ni-NTA agarose, imidazole elution, dialyzed)

— article PMC5077174, “Analysis of the Physiological Activities of Scd6 through Its Interaction with Hmt1” (PLoS ONE, 2016)
